In the FLAb antibody collection (doi:10.7554/elife.23156):

B1: scFv; the commonest letter at each place (parent)
chain 1: EVKLDETGGGLVQPGRPMKLSCVASGFTFSDYWMNWVRQSPEKGLEWVAQIRNKPYNYETYYSDSVKGRFTISRDDSKSSVYLQMNNLRVEDMGIYYCTGSYYGMDYWGQGTSVTVS
chain 2: DVVMTQTPLSLPVSLGDQASISCRSSQSLVHSNGNTYLRWYLQKPGQSPKVLIYKVSNRFSGVPDRFSGSGSGTDFTLKISRVEAEDLGVYFCSQSTHVPWTFGGGTKLEIK

Assays:
[1] = variants of: B1; experiment: Kd (Tite-Seq); details: with fluorescein; format: scFv 4-4-20, heavy + light
[2] = variants of: B1; experiment: yeast surface expression (ratio to wild type); higher = more expressed; details: format: scFv 4-4-20, heavy + light

Row | Variant | Kd [1] | yeast surface expression [2]
1 | chain 1 EVKLDETGGGLVQPGRPMKLSCVASGFTFSDYWMNWVRQSPEKGLEWVAQIRNKPYNYETYYSDSVKGRFTISRDDSKSSVYLQMNNLRVEDMGIYYCTGNYYGMDYWGQGTSVTVS chain 2 DVVMTQTPLSLPVSLGDQASISCRSSQSLVHSNGNTYLRWYLQKPGQSPKVLIYKVSNRFSGVPDRFSGSGSGTDFTLKISRVEAEDLGVYFCSQSTHVPWTFGGGTKLEIK [chain 1 S101N] | ≥ 10 µM | 0.886
2 | chain 1 EVKLDETGGGLVQPGRPMKLSCVASGFTFSMYWKNWVRQSPEKGLEWVAQIRNKPYNYETYYSDSVKGRFTISRDDSKSSVYLQMNNLRVEDMGIYYCTGSYYGMDYWGQGTSVTVS chain 2 DVVMTQTPLSLPVSLGDQASISCRSSQSLVHSNGNTYLRWYLQKPGQSPKVLIYKVSNRFSGVPDRFSGSGSGTDFTLKISRVEAEDLGVYFCSQSTHVPWTFGGGTKLEIK [chain 1 D31M M34K] | ≥ 10 µM | 0.564
3 | chain 1 EVKLDETGGGLVQPGRPMKLSCVASGFTFSDYWMNWVRQSPEKGLEWVAQIRNKPYNYETYYSDSVKGRFTISRDDSKSSVYLQMNNLRVEDMGIYYCTGVYYGHDYWGQGTSVTVS chain 2 DVVMTQTPLSLPVSLGDQASISCRSSQSLVHSNGNTYLRWYLQKPGQSPKVLIYKVSNRFSGVPDRFSGSGSGTDFTLKISRVEAEDLGVYFCSQSTHVPWTFGGGTKLEIK [chain 1 S101V M105H] | ≥ 10 µM | 0.496
4 | chain 1 EVKLDETGGGLVQPGRPMKLSCVASGFTFSDYWMNWVRQSPEKGLEWVAQIRNKPYNYETYYSDSVKGRFTISRDDSKSSVYLQMNNLRVEDMGIYYCTGSYYGVDYDGQGTSVTVS chain 2 DVVMTQTPLSLPVSLGDQASISCRSSQSLVHSNGNTYLRWYLQKPGQSPKVLIYKVSNRFSGVPDRFSGSGSGTDFTLKISRVEAEDLGVYFCSQSTHVPWTFGGGTKLEIK [chain 1 M105V W108D] | ≥ 10 µM | 0.437
5 | chain 1 EVKLDETGGGLVQPGRPMKLSCVASGFTFSCYGMNWVRQSPEKGLEWVAQIRNKPYNYETYYSDSVKGRFTISRDDSKSSVYLQMNNLRVEDMGIYYCTGSYYGMDYWGQGTSVTVS chain 2 DVVMTQTPLSLPVSLGDQASISCRSSQSLVHSNGNTYLRWYLQKPGQSPKVLIYKVSNRFSGVPDRFSGSGSGTDFTLKISRVEAEDLGVYFCSQSTHVPWTFGGGTKLEIK [chain 1 D31C W33G] | ≥ 10 µM | 0.385

Now from value to variant, other results behind:

Row | Kd [1] | Variant | yeast surface expression [2]
6 | ≥ 10 µM | chain 1 EVKLDETGGGLVQPGRPMKLSCVASGFTFSDYWMNWVRQSPEKGLEWVAQIRNKPYNYETYYSDSVKGRFTISRDDSKSSVYLQMNNLRVEDMGIYYCTGSYQGMMYWGQGTSVTVS chain 2 DVVMTQTPLSLPVSLGDQASISCRSSQSLVHSNGNTYLRWYLQKPGQSPKVLIYKVSNRFSGVPDRFSGSGSGTDFTLKISRVEAEDLGVYFCSQSTHVPWTFGGGTKLEIK [chain 1 Y103Q D106M] | 0.805
7 | ≥ 10 µM | chain 1 EVKLDETGGGLVQPGRPMKLSCVASGFTFSDYWMNWVRQSPEKGLEWVAQIRNKPYNYETYYSDSVKGRFTISRDDSKSSVYLQMNNLRVEDMGIYYCTGSYYGSNYWGQGTSVTVS chain 2 DVVMTQTPLSLPVSLGDQASISCRSSQSLVHSNGNTYLRWYLQKPGQSPKVLIYKVSNRFSGVPDRFSGSGSGTDFTLKISRVEAEDLGVYFCSQSTHVPWTFGGGTKLEIK [chain 1 M105S D106N] | 0.443
8 | ≥ 10 µM | chain 1 EVKLDETGGGLVQPGRPMKLSCVASGFTFSDYWMNWVRQSPEKGLEWVAQIRNKPYNYETYYSDSVKGRFTISRDDSKSSVYLQMNNLRVEDMGIYYCTGFYYGMDYFGQGTSVTVS chain 2 DVVMTQTPLSLPVSLGDQASISCRSSQSLVHSNGNTYLRWYLQKPGQSPKVLIYKVSNRFSGVPDRFSGSGSGTDFTLKISRVEAEDLGVYFCSQSTHVPWTFGGGTKLEIK [chain 1 S101F W108F] | 0.199
9 | ≥ 10 µM | chain 1 EVKLDETGGGLVQPGRPMKLSCVASGFTFSDYWMWWQRQSPEKGLEWVAQIRNKPYNYETYYSDSVKGRFTISRDDSKSSVYLQMNNLRVEDMGIYYCTGSYYGMDYWGQGTSVTVS chain 2 DVVMTQTPLSLPVSLGDQASISCRSSQSLVHSNGNTYLRWYLQKPGQSPKVLIYKVSNRFSGVPDRFSGSGSGTDFTLKISRVEAEDLGVYFCSQSTHVPWTFGGGTKLEIK [chain 1 N35W V37Q] | 0.372
10 | 0.00444 µM | chain 1 EVKLDETGGGLVQPGRPMKLSCVASGFTFSIAWMNWVRQSPEKGLEWVAQIRNKPYNYETYYSDSVKGRFTISRDDSKSSVYLQMNNLRVEDMGIYYCTGSYYGMDYWGQGTSVTVS chain 2 DVVMTQTPLSLPVSLGDQASISCRSSQSLVHSNGNTYLRWYLQKPGQSPKVLIYKVSNRFSGVPDRFSGSGSGTDFTLKISRVEAEDLGVYFCSQSTHVPWTFGGGTKLEIK [chain 1 D31I Y32A] | 0.779
11 | 3.94 µM | chain 1 EVKLDETGGGLVQPGRPMKLSCVASGFTAVDYWMNWVRQSPEKGLEWVAQIRNKPYNYETYYSDSVKGRFTISRDDSKSSVYLQMNNLRVEDMGIYYCTGSYYGMDYWGQGTSVTVS chain 2 DVVMTQTPLSLPVSLGDQASISCRSSQSLVHSNGNTYLRWYLQKPGQSPKVLIYKVSNRFSGVPDRFSGSGSGTDFTLKISRVEAEDLGVYFCSQSTHVPWTFGGGTKLEIK [chain 1 F29A S30V] | 0.758
12 | 0.00175 µM | chain 1 EVKLDETGGGLVQPGRPMKLSCVASGFSFMDYWMNWVRQSPEKGLEWVAQIRNKPYNYETYYSDSVKGRFTISRDDSKSSVYLQMNNLRVEDMGIYYCTGSYYGMDYWGQGTSVTVS chain 2 DVVMTQTPLSLPVSLGDQASISCRSSQSLVHSNGNTYLRWYLQKPGQSPKVLIYKVSNRFSGVPDRFSGSGSGTDFTLKISRVEAEDLGVYFCSQSTHVPWTFGGGTKLEIK [chain 1 T28S S30M] | 0.95
